From US20030108554A1 (published 2003)

Tests used:
[1] = target: T1, GIP90 (GPBP interacting protein 90 kDa) (human, UniProt Q4L180 1-749, limits assumed); experiment: yeast two-hybrid, β-galactosidase colony lift
T1 construct: Full length; tested as GAL4 domain fusion in yeast two-hybrid/three-hybrid; fusion parts are not written as pieces
T1 sequence: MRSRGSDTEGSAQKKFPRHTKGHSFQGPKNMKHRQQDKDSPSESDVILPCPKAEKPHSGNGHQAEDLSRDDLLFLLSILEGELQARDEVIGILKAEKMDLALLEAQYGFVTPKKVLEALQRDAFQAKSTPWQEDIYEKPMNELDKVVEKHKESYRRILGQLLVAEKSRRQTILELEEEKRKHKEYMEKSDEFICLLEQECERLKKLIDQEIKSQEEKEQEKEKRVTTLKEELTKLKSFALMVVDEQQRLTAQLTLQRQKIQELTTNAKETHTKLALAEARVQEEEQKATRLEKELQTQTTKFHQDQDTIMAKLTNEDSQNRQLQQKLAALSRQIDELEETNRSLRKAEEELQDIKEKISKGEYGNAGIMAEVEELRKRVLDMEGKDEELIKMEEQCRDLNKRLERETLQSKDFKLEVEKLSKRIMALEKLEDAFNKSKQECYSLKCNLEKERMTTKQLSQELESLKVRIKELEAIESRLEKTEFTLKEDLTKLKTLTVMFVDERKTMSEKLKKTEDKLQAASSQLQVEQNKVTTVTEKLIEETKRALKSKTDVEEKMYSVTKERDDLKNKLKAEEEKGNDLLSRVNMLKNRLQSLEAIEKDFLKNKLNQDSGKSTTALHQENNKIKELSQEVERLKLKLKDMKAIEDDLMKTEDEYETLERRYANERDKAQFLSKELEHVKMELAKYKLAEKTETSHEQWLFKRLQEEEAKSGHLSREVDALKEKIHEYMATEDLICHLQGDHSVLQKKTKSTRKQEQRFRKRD
Experimental: Deletion mutants were obtained using specific primers and PCR, followed by cloning of the resulting cDNAs in the pGBT9 and pGAD424 vectors. The assays were performed in SFY526 or HF7c Saccharomyces cerevisiae strains, with pGBT9 as GAL4 binding domain vector and pGAD424 as GAL4 activation domain vector, by the lift colony assay procedure. Briefly, the yeast cells were co-transformed with constructs of both binding domain and activation domain vectors, and the co-transformants were selected in medium deficient in both tryptophan and leucine. After five days of incubation at 30° C. the colonies were tested for the expression of β-galactosidase with X-Gal substrate (0.75 mg/ml). […] When the assays were performed with the HF7c strain, the interactions were assessed by the lift colony assay procedure and by growth in medium deficient in histidine, tryptophan and leucine. For yeast three-hybrid system, we used the pBRIDGE vector, which allows the conditional expression of a third protein apart from the usual GAL4 binding and activation domain-fusion proteins of the two-hybrid system. In this case, the expression of GPBP or I-20 or GIP90 was driven by Met25 promoter, active in absence of methionine. In these experiments, the transformed SFY526 cells were plated in medium deficient in tryptophan, leucine and methionine, and subjected to the colony lift assay after five days at 30° C. […]

[2] = target: T2, GIP130a (human, UniProt Q4L180 1-1135); experiment: yeast two-hybrid and three-hybrid (conclusion)
T2 construct: Full length; tested as GAL4 domain fusion in yeast two-hybrid
T2 sequence: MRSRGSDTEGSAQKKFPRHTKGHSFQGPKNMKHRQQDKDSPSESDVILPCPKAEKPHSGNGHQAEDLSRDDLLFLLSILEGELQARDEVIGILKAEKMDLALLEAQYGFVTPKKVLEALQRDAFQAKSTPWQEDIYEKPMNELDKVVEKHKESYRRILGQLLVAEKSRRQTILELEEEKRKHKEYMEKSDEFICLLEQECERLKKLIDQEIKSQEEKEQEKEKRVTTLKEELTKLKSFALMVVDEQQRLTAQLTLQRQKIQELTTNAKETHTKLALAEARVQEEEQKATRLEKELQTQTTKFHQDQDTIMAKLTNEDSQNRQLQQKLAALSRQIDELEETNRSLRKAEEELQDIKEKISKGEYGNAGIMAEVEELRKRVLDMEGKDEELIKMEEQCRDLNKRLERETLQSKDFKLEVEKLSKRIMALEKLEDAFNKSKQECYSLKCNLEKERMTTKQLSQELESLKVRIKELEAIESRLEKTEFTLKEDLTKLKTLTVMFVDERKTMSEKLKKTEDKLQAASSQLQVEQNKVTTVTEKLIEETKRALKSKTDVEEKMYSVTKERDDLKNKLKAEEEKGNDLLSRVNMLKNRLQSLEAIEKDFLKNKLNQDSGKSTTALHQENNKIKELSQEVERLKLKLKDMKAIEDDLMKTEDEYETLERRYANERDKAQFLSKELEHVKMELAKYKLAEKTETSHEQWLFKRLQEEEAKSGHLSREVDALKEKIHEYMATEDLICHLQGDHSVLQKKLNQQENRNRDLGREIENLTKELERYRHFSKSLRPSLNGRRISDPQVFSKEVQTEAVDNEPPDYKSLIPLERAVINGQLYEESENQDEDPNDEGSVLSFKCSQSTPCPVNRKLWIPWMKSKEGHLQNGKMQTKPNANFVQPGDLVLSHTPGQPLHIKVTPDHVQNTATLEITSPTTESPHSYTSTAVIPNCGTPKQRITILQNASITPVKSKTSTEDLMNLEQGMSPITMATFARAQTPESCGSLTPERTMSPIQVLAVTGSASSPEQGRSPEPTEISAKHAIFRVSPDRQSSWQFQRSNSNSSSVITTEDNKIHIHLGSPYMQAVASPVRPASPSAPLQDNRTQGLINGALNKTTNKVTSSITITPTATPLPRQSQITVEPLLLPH
Experimental: Accordingly, we have observed with a yeast three-hybrid system that GPBP expression efficiently impairs both I-20 and GIP90 aggregation, and that I-20 and GIP90 efficiently impair GPBP aggregation.
Deletion mutants were obtained using specific primers and PCR, followed by cloning of the resulting cDNAs in the pGBT9 and pGAD424 vectors. The assays were performed in SFY526 or HF7c Saccharomyces cerevisiae strains, with pGBT9 as GAL4 binding domain vector and pGAD424 as GAL4 activation domain vector, by the lift colony assay procedure. Briefly, the yeast cells were co-transformed with constructs of both binding domain and activation domain vectors, and the co-transformants were selected in medium deficient in both tryptophan and leucine. After five days of incubation at 30° C. the colonies were tested for the expression of β-galactosidase with X-Gal substrate (0.75 mg/ml). […] When the assays were performed with the HF7c strain, the interactions were assessed by the lift colony assay procedure and by growth in medium deficient in histidine, tryptophan and leucine. For yeast three-hybrid system, we used the pBRIDGE vector, which allows the conditional expression of a third protein apart from the usual GAL4 binding and activation domain-fusion proteins of the two-hybrid system. In this case, the expression of GPBP or I-20 or GIP90 was driven by Met25 promoter, active in absence of methionine. In these experiments, the transformed SFY526 cells were plated in medium deficient in tryptophan, leucine and methionine, and subjected to the colony lift assay after five days at 30° C. In the case of the strain HF7c the colonies grown in the cited plates were streaked on medium with the additional deficiency of histidine.

binding result [1]: binds
binding result [2]: binds
B1: Goodpasture antigen binding protein (GPBP) (enzyme, UniProt Q9Y5P4 1-624, looked up)
chain: MSDNQSWNSSGSEEDPETESGPPVERCGVLSKWTNYIHGWQDRWVVLKNNALSYYKSEDETEYGCRGSICLSKAVITPHDFDECRFDISVNDSVWYLRAQDPDHRQQWIDAIEQHKTESGYGSESSLRRHGSMVSLVSGASGYSATSTSSFKKGHSLREKLAEMETFRDILCRQVDTLQKYFDACADAVSKDELQRDKVVEDDEDDFPTTRSDGDFLHSTNGNKEKLFPHVTPKGINGIDFKGEAITFKATTAGILATLSHCIELMVKREDSWQKRLDKETEKKRRTEEAYKNAMTELKKKSHFGGPDYEEGPNSLINEEEFFDAVEAALDRQDKIEEQSQSEKVRLHWPTSLPSGDAFSSVGTHRFVQKPYSRSSSMSSIDLVSASDDVHRFSSQVEEMVQNHMTYSLQDVGGDANWQLVVEEGEMKVYRREVEENGIVLDPLKATHAVKGVTGHEVCNYFWNVDVRNDWETTIENFHVVETLADNAIIIYQTHKRVWPASQRDVLYLSVIRKIPALTENDPETWIVCNFSVDHDSAPLNNRCVRAKINVAMICQTLVSPPEGNQEISRDNILCKITYVANVNPGGWAPASVLRAVAKREYPKFLKRFTSYVQEKTAGKPILF
notes: Protein kinase; Fusion parts are not written as pieces
